Assay results: the DeepSol protein solubility set

Assay: soluble on expression in E. coli; label from the status in PepcDB or PDB records

Soluble on expression in E. coli, not soluble:
PKISQLVAPFELTQNNNDKAILLIHGLTDSPFSFHDLSQFFYQQGFTVRTLLLPGHGVAPSELLNTDYQAWQQAATFAIDQTLNDYQQVYLGGLSTGGALIFNYLMQQKQVDEKIKGLFMWSPATKAKSDLAWLAQYIDGIPFVDWIDLDADIDFAKYESFPYNAGAQVHALMNLVVGEGANASRQMHDIPLFVVASEHDQTIDTAHTLQLVQQWQLAS
PLLIGGLYPKNLEDRILIKLDQAPPYLLDGLVAVEDRDFYHHFGVSPKSIARAIWVNTSQGQMRQGGSTLTQQLVKNFYLTNERSLSRKLTEAMMAVLLEIHYSKQEILEAYLNEVFVGQDGQRAVHGFGLASQYFFSQPLSELKIHQVAMLVGLVKGPSFY
PNILRGLLLGYSEKMVELEHKVEVMQPTIDAFDRIATANGSLCLTDAAKALQMRPKDFISFLSQKQWIYKRTGSAHYVGYQDKVQAGFLEHKVTEVTRGDGSNKITEQVRVTPKGLTRLSKLLGNNHV
PTEEWLRYVTTARAKSKVDTFLRRKRRELINRGEERVVSVIRTSESMVSAELLDRIAAYFGFLNRETFFYAVGTGTVSLPESFKKL
PVHAVGIGPGNLDFLTPRGEEAIREADVVVGFETVVEFVADRTDADLLTCGYRDELDTLDAFAERVAGGERGTAVAMGDPNHSGYQFVGKVQRAVDRPVRIVPGI
PVSAMAKKQKNDVADWLMHKQRVQYGGRVYERSGGIKPFLKSIRDGYIGYYLPDQDHGPEHSVFVDFFATRKATLPGLGKIAKLSRSKVLPLFASMNTEDGTFDIEILPAFDLDKGEEQDARTCNEAIEYFVGDKPEQYMWVLQLLHSQEDGNNYYNLFKPRYNTDWQVEK
QGFSQEKYAHNALNRRGFIELKSQARGQISTGGQVLAESYQDEEGFYQRRYVTNPAIYGPIEGYLSDIYGASGMESNLNGVLSGTDSSVSVRRWTDELLGRKHSGANVELTLLPQVQEVAYNQMANAGYEGAVVAIKPSTGEILAMASTPSYDPSAIVNPDTAEQTWAALNADPGNPLLNHATQETLPPGSTFK
QGKTTVTAALARLHARQGRRVRVFKCGPDFLDPMILARASGAPVYQLDLWMVGEAEARRLLARAAGEADLILIEGVMGLFDGNPSAADLARRFGVPVLGVINGAAMAQTFGALAYGLAHFQPDLPFSGVLGNRVGSQRHSDILRDCLPPGMRWFGGLPRSAEFELPSRHLGLVQAEELADLDARLDAAADALRASAETDLPEPVTFEVPAPAPLQRSLEGVRIGVARDASFAFLYQANLDLLRELGAELAFFSPLQDQALPAVDSLYLPGGYPELHLGRLQGNRAMAEAIRAHHAAGKPLLAECGGMLYLLDCLEDADGERGELLGLLPGRARLQKRLTALALQEVELPEGRLRGHTFHHSTLDCAVEPLARGVCPNGRNTAEAVFRLGRLTASYIHFYLPSNPQAAAALLAPARDA
QKFIARNRAPRVQIEYDVEIYGAERKIQLPFVMGVLADLAGKSNTPQPEVGERKFLDVDIDNFDERMKSVAPRAAFQVANTLTGAGHLNVDITFESIDDFSPATVARKVGALNEMLEARTQLANLLTYMDGKTGAEELIGQVLQNPALLGALAAAPKPA

Soluble on expression in E. coli, soluble:
PHSMEPQVTLNVTFKNEIQSFLVSDPENTTWADIEAMVKVSFDLNTIQIKYLDEENEEVSINSQGEYEEALKMAVKQGNQLQMQVHEGHHVVDEAPPPVVGAKRLAARAGKKPLAHYSSLVRVLGSDMKTPEDPAVQSFPLVPCDTDQPQDKPPDWFTSYLETFREQVVNETVEKLEQKLHEKLVLQNPSLGSCPSEVSMPTSEETLFLPENQFSWHIACNNCQRRIVGVRYQCSLCPSYNICEDCEAGPYGHDTNHVLLKLRRPVVGSSEPFCHSKYSTPRLPAALEQVRLQKQVDKNFLKAEKQRLRAEKKQRKAEVKELKKQLKLHRKIHLWNSIHGLQSPKSPLGRPESLLQSNTLMLPLQPCTSVMPMLSAAFVDENLPDGTHLQPGTKFIKHWRMKNTGNVKWSADTKLKFMWGNLTLASTEKKDVLVPCLKAGHVGVVSVEFIAPALEGTYTSHWRLSHKGQQFGPRVWCSIIVDPFPSEESPDNIEKGMISSSKTDDLTCQQEETFLLAKEERQLGEVTEQTEGTAACIPQKAKNVASERELYIPSVDLLTAQDLLSFELLDINIVQELERVPHNTPVDVTPCMSPLPHDSPLIEKPGLGQIEEENEGAGFKALPDSMVSVKRKAENIASVEEAEEDLSGTQFVCETVIRSLTLDAAPDHNPPCRQKSLQMTFALPEGPLGNEKEEIIHIAEEEAVMEEEEDEEDEEEEDELKDEVQSQSSASSEDYIIILPECFDTSRPLGDSMYSSALSQPGLERGAEGKPGVEAGQEPAEAGERLPGGENQPQEHSISDILTTSQTLETVPLIPEVVELPPSLPRSSPCVHHHGSPGVDLPVTIPEVSSVPDQIRGEPRGSSGLVNSRQKSYDHSRHHHGSSIAGGLVKGALSVAASAYKALFAGPPVTAQPIISEDQTAALMAHLFEMGFCDRQLNLRLLKKHNYNILQVVTELLQLNNNDWYSQRY
PKATAQMEGRLQEFLTAYAPGARLALADGVLGFIHHQIVELARDCLAKSGENLVTSRYFLEMQEKLERLLQDAHERSDSEEVSFIVQLVRKLLIIISRPAR
PKKPPMNGYQKFSQELLSNGELNHLPLKERMVEIGSRWQRISQSQKEHYKKLAEEQQRQYKVHLDLWVKSLSPQDRAAYKEYISNKRK
PMVTAATSLRRALENPDSFIVAPGVYDGLSARVALSAGFDALYMTGAGTAASVHGQADLGICTLNDMRANAEMISNISPSTPVIADADTGYGGPIMVARTTEQYSRSGVAAFHIEDQVQTKRCGHLAGKILVDTDTYVTRIRAAVQARQRIGSDIVVIARTDSLQTHGYEESVARLRAARDAGADVGFLEGITSREMARQVIQDLAGWPLLLNMVEHGATPSISAAEAKEMGFRIIIFPFAALGPAVAAMREAMEKLKRDGIPGLDKEMTPQMLFRVCGLDESMKVDAQAGGAAFDGGVDLK
PNFSEGSSSTESTVRVKHKIEKTTQKLSETVRPRDMFIHDDGAHYKVDDNALYEEIWSDLPHWDVKGIKDISDQYDKAGFKSWFYGIGGSEAKLDLQFSDTIPIDIFQTLFKWSNQSFEYSSFDHILIPFNETKANKKIYLVSYSKQLILEVTVESANYRNIMNDLKNRQSNMPAFSLFSIGSKKEFLLPNKPLTMDKKEFVTESIKTNTFKQALFSDPSIVREDSNYNNRNVLTDGISRLDVNLSQRQVQFQQRNLVQSTSYQTGELIKKSQKYLEDTGSWTDHYQFFNINDSQQLSFYIFMDQIPVINSTAKPFGATSAITVQWANDDILSYKRPNYSLGTNPIKTSETELMGGSEVKMLLSKQTAYDTDKIDQIFLAYQLVSTSTNDDPLVELEPVWAMKVNGKIVPITKDLLRKEGANSGVE
PRRGAVAHANSIVQQLVSEGADISHTRNMLRNAMNGDAVAFSRVEQNIFRQHFPNMPMHGISRDSELAIELRGALRRAVHQQAAS
PSHSGAAIFEKVSGIIAINEDVSPAELTWRSTDGDKVHTVVLSTIDKLQATPASSEKMMLRLIGKVDESKKRKDNEGNEVVPKPQRHMFSFNNRTVMDNIKMTLQQIISRYKDAD
PVNQVQSSVSWPQNGSLNSVSAPLMSYTPISFDAKIPVASVDKLRKDQDLILGTLPANSEDAGARGLFVRANDDGLQITSHGELVLDLSKRELAQLPADATIAISATEDETTAGIEGDDSTTETVERDVRPIIMGIYTELESNAAADLLNAGLNAHVEINSRFTSSPTLAKYAS
PVVLESKQRGPCAMSRLIVKNLPNGMKEERFRQLFAAFGTLTDCSLKFTKDGKFRKFGFIGFKSEEEAQKAQKHFNKSFIDTSRITVEFCKSFGDPAKPRAWSKHAQKPSQPKQPPKDSTTPEIKKDEKKKKVAGQLEKLKEDTEFQEFLSVHRRRAQAATWANDGLDAEPSKGKSKPASDYLNFDSDSGQESEEEGAGEDLEEEASLEPKAAVQKELSDMDYLKSKMVKAGSSSSSEEEESEDEAVHCDEGSEAEEEDSSATPVLQERDSRGAGQEQGMPAGKKRPPEARAETEKPANQKEPTTCHTVKLRGAPFNVTEKNVMEFLAPLKPVAIRIVRNAHGNKTGYIFVDFSNEEEVKQALKCNREYMGGRYIEVFREKNVPTTKGAPKNTTKSWQGRILGENEEEEDLAESGRLFVRNLPYTSTEEDLEKLFSKYGPLSELHYPIDSLTKKPKGFAFITFMFPEHAVKAYSEVDGQVFQGRMLHVLPSTIKKEASEDASALGSSSYKKKKEAQDKANSASSHNWNTLFMGPNAVADAIAQKYNATKSQVFDHETKGSVAVRVALGETQLVQEVRRFLIDNGVSLDSFSQAAAERSKTVILVKNLPAGTLAAELQETFGRFGSLGRVLLPEGGTTAIVEFLEPLEARKAFRHLAYSKFHHVPLYLEWAPVGVFSSAAPQKKKLQDTPSEPMEKDPAEPETVPDGETPEDENPTEEGADNSSAKMEEEEEEEEEEEESLPGCTLFIKNLNFDTTEEKLKEVFSKVGTVKSCSISKKKNKAGVLLSMGFGFVEYRKPEQAQKALKQLQGHVVDGHKLEVRISERATKPAVTLARKKQVPRKQTTSKILVRNIPFQAHSREIRELFSTFGELKTVRLPKKMTGTGTHRGFGFVDFLTKQDAKRAFNALCHSTHLYGRRLVLEWADSEVTLQALRRKTAAHFHEPPKKKRSVVLDEILEQLEGSDSDSEEQTLQL
PVYVDFDVPADLEDDALEALEVARDTGAVKKGTNETTKSIERGSAELVFVAEDVQPEEIVMHIPELADEKGVPFIFVEQQDDLGHAAGLEVGSAAAAVTDAGAAATVLEEIADKVEELR
QEGDAAKGEKEFNKCKACHMVQAPDGTDIVKGGKTGPNLYGVVGRKIASVEGFKYGDGILEVAEKNPDMVWSEADLIEYVTDPKPWLVEKTGDSAAKTKKTFKLGKNQADVVAFLAQHSPDAGAEAAPAEGAAN
QFLFSMSTGPFICTVKDNQVFVANLPWTMLEGDDIQVGKEFAARVEDCTNVKHDMAPTCTKPPPFCGPQDMKMFNFVGCSVLGNKLFIDQKYVRDLTAKDHAEVQTFREKIAAFEEQQENQPPSSGMPHGAVPAGGLSPPPPPSFCTVQ
QGDIGIDNLRNFYTKKDFVDLKDVKDNDTPIANQLQFSNESYDLISESKDFNKFSNFKGKKLDVFGISYNGQSNTKYIYGGVTATNEYLDKSRNIPINIWINGNHKTISTNKVSTNKKFVTAQEIDVKLRKYLQEEYNIYGHNGTKKGEEYGHKSKFYSGFNIGKVTFHLNNNDTFSYDLFYTGDDGLPKSFLKIYEDNKTVESEKFHLDVDISYKA
QGVRTFVDPFTFEDPNQAVREFAKEIDASCIKIEKVIGVGEFGEVCSGRLKVPGKREICVAIKTLKAGYTDKQRRDFLSEASIMGQFDHPNIIHLEGVVTKCKPVMIITEYMENGSLDAFLRKNDGRFTVIQLVGMLRGIGSGMKYLSDMSAVHRDLAARNILVNSNLVCKVSDFGMSRVLEDDPEAAYTTRGGKIPIRWTAPEAIAYRKFTSASDVWSYGIVMWEVMSYGERPYWDMSNQDVIKAIEEGYRLPPPMDCPIALHQLMLDCWQKERSDRPKFGQIVNMLDKLIRNPNSLKRTGSESS
QKSNRKDYSLTMQSSVTVQEGMCVHVRCSFSYPVDSDTDSDPVHGYWFRAGNDISWKAPVATNNPAWAVQEETRDRFHLLGDPQTKNCTLSIRDARMSDAGRYFFRMEKGNIKWNYKYDQLSVNVTALTHRP
